Assay results: publication PMC8280513, “Marmoset glutathione transferases with ketosteroid isomerase activity” (Biochemistry and Biophysics Reports, 2021)

B1: CjaGST A1-1 (Callithrix jacchus) (protein)
chain: MAEKPKLHYFNARGRMESTRWLLAAAGVEFEEKLIKSPEELDKLRNDGYLMFQQVPMVEIDGMKLVQSRAILNYIASKYNLYGKDIKERALIDMYIEGMADLYEMILLLPFCKPEEKDTKIAMIKEKTKNRYFPAFEKVLKSHGQDYLVGNKLSRADIHLVELLYYVEEVDPSLISSFPLLKALKTRISNLPTVKKFLQPGSPRKPPTDAKTLEEARKIFRF

Legend:
CjaGST A1-1 = molecular target: T1, CjaGST A1-1 (Callithrix jacchus, UniProt A0A7G0XAM3); experiment: specific activity, spectrophotometric assay; assay type: biochemical
T1 construct: gene GSTA1; 222 amino acid residues, N-terminal hexahistidine tag
T1 sequence (A0A7G0XAM3 1-222): B1 chain

purified protein = substrate: [H][C@@]12CC=C3CC(=O)CC[C@]3(C)[C@@]1([H])CC[C@]1(C)C(=O)CC[C@@]21[H]; experiment: purified protein; settings: glutathione H-site; Phe111 suggested to hinder steroid binding

Molecule | specific activity (CjaGST A1-1) [µmol/min/mg] | Km (purified protein) [µM] | kcat (purified protein) [s⁻¹] | kcat/Km (purified protein) [M⁻¹ s⁻¹]
S=C=NCCc1ccccc1 [PEITC, phenethyl isothiocyanate] | 8.80 ± 1.95 | – | – | –
O=[N+]([O-])c1ccc(Cl)c([N+](=O)[O-])c1 [CDNB, 1-chloro-2,4-dinitrobenzene] | 26.1 ± 0.59 | – | – | –
B1 | – | 303 ± 34 | 6.89 ± 0.79 | 22700
